How the values were obtained:
Test in all cases: EMSA
BsSpo0J R105E = target: T1, BsSpo0J R105E (UniProt P26497 1-282, R105E)
T1 sequence: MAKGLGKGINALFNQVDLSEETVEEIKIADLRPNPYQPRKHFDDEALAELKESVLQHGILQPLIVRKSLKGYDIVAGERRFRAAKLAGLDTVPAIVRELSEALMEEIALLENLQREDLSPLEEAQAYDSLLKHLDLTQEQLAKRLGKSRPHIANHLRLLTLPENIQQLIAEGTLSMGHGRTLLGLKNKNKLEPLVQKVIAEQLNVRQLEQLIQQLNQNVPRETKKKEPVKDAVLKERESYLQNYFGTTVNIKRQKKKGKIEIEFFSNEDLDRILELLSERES

BsSpo0J Q61A = target: T2, BsSpo0J Q61A (UniProt P26497 1-282, Q61A)
T2 sequence: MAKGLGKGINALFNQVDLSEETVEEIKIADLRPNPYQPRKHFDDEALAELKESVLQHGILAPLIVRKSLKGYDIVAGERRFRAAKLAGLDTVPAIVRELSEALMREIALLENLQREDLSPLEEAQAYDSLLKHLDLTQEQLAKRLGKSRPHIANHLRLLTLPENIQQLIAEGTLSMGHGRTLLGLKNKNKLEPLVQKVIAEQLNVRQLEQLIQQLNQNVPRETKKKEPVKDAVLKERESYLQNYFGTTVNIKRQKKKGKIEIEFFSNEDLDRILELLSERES

BsSpo0J Q140A = target: T3, BsSpo0J Q140A (UniProt P26497 1-282, Q140A)
T3 sequence: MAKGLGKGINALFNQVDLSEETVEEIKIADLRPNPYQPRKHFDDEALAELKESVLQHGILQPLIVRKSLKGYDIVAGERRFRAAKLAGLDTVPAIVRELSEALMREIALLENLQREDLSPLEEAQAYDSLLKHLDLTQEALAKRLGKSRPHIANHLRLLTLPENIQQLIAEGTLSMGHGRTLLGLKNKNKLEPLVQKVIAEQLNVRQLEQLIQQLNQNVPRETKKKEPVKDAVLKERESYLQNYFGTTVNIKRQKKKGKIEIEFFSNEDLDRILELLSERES

BsSpo0J Q61R = target: T4, BsSpo0J Q61R (UniProt P26497 1-282, Q61R)
T4 sequence: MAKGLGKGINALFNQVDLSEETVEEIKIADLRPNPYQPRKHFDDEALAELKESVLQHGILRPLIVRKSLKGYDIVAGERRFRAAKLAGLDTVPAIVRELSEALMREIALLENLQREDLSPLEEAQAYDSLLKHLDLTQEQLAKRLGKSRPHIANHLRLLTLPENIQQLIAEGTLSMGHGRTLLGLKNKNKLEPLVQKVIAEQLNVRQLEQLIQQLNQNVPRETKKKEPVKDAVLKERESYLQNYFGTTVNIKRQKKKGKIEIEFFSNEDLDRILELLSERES

BsSpo0J R82A = target: T5, BsSpo0J R82A (UniProt P26497 1-282, R82A)
T5 sequence: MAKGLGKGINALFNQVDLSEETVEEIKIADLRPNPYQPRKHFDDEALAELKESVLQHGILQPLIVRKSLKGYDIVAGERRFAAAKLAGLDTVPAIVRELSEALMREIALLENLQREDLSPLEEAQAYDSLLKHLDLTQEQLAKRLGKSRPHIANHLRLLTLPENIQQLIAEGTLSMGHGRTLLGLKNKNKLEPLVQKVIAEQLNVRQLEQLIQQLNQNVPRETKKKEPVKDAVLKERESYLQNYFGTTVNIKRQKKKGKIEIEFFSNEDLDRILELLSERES

BsSpo0J Q140R = target: T6, BsSpo0J Q140R (UniProt P26497 1-282, Q140R)
T6 sequence: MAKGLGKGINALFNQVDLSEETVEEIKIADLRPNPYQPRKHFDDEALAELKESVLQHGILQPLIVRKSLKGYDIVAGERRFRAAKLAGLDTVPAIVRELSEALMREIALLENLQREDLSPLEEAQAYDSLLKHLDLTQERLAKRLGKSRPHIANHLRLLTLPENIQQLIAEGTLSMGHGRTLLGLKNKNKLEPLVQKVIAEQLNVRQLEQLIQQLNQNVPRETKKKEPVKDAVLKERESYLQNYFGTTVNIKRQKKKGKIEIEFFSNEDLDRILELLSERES

BsSpo0J E52R = target: T7, BsSpo0J E52R (UniProt P26497 1-282, E52R)
T7 sequence: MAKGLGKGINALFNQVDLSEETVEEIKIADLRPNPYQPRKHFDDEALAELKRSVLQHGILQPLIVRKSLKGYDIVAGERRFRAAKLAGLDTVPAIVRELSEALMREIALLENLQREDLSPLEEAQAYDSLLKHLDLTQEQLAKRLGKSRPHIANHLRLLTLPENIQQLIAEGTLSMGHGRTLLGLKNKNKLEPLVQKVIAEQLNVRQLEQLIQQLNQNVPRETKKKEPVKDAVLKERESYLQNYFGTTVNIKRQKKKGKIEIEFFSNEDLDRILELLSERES

BsSpo0J M104A = target: T8, BsSpo0J M104A (UniProt P26497 1-282, M104A)
T8 sequence: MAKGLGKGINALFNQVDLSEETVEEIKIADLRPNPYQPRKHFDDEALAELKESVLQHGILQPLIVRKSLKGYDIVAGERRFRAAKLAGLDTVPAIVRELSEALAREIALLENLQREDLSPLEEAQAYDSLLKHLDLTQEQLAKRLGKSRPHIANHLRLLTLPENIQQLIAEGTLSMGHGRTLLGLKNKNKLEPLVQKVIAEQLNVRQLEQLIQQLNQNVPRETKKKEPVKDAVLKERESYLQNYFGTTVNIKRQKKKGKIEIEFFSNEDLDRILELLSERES

BsSpo0J R105A = target: T9, BsSpo0J R105A (UniProt P26497 1-282, R105A)
T9 sequence: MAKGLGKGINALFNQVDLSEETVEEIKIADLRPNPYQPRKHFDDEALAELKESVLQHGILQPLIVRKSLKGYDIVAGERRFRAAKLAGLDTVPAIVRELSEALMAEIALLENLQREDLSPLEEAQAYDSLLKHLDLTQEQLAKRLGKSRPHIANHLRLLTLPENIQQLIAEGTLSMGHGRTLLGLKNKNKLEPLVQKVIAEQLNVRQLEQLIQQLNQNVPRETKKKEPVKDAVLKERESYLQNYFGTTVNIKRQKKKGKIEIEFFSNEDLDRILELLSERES

Measured: binding result

B1: 24-bp parS (dsDNA)
DNA 1: AGAATGTTCCACGTGAAACAAAGA
DNA 2: TCTTTGTTTCACGTGGAACATTCT
binds: all assays above

From paper PMC5499601 (Nucleic Acids Research, 2017)
